Consider three molecules from article PMC9365698, “A physical wiring diagram for the human immune system” (Nature, 2022).

Holding throughout (experiment): SAVEXIS (scalable arrayed multi-valent extracellular interaction screen); biotinylated bait (100 fmol per well) captured on streptavidin-coated 384-well plates; prey multimerised on streptavidin-HRP (25 fmol protein with 6.25 fmol SAV-HRP); 60 min at 20 °C in 2% BSA in HBS pH 7.4 (1 mM MgCl2, 2 mM CaCl2); desthiobiotin washes; TMB absorbance at 650 nm; both bait-prey orientations; primary and secondary screen
Common to all, as to details: both partners purified

The target of assay [1] is T1, PVR (human, UniProt P15151 21-343, biotin on the biotin-acceptor site (enzymatic, co-transfected BirA)).
T1 construct: PVR (poliovirus receptor), human, full ectodomain
T1 sequence (looked up): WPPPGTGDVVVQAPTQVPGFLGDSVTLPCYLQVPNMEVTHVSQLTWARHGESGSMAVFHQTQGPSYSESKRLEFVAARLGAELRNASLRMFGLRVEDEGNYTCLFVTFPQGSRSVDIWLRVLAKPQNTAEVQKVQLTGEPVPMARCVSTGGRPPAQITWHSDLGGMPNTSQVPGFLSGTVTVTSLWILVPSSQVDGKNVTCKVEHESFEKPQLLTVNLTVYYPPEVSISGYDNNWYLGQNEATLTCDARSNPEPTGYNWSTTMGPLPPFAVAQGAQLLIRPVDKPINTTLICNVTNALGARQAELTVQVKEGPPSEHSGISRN

The target of assay [2] is T2, Plasmodium falciparum P41 protein (Plasmodium falciparum, UniProt Q8I1Y0 21-378).
T2 construct: P41 protein of Plasmodium falciparum; P41 was the bait in two control wells of every screening plate
T2 sequence: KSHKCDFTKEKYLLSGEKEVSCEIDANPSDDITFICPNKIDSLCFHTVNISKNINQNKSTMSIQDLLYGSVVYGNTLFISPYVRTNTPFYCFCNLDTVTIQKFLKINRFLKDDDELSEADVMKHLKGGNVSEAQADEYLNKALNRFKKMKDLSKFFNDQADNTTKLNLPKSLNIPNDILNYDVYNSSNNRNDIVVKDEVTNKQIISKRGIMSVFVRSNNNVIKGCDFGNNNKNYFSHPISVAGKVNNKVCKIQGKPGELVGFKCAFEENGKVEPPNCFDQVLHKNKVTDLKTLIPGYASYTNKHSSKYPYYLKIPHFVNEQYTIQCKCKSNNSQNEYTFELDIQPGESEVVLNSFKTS

Assay [3] deals with T3, JAG1 (human, UniProt P78504 34-1067, biotin on the biotin-acceptor site (enzymatic, co-transfected BirA)).
T3 construct: JAG1 (Jagged-1), human, full ectodomain; also called Jagged ligands

B1: KIR2DL5A (receptor, human, UniProt Q8N109 22-238, looked up)
chain: HEGGQDKPLLSAWPSAVVPRGGHVTLLCRSRLGFTIFSLYKEDGVPVPELYNKIFWKSILMGPVTPAHAGTYRCRGSHPRSPIEWSAPSNPLVIVVTGLFGKPSLSAQPGPTVRTGENVTLSCSSRSSFDMYHLSREGRAHEPRLPAVPSVNGTFQADFPLGPATHGGTYTCFGSLHDSPYEWSDPSDPLLVSVTGNSSSSSSSPTEPSSKTGIRRH
modifications: biotin on the biotin-acceptor site (enzymatic, co-transfected BirA)
notes: KIR2DL5A, human, full ectodomain
Turning to B1, the binding result in assay [1] was “binds”.

B2: Plasmodium falciparum P12 (natural protein)
chain: HKNLTCDFNDVYKLEFHPNQQTSVTKLCNLTPNVLEKVTIKCGSDKLNYNLYPPTCFEEVYASRNMMHLKKIKEFVIGSSMFMRRSLTPNKINEVSFRIPPNMMPEKPIYCFCENKKTITINGSNGNPSSKKDIINRGIVEIIIPSLNEKVKGCDFTTSESTIFSKGYSINEISNKSSNNQQDIVCTVKAHANDLIGFKCPSNYSVEPHDCFVSAFNLSGKNENLENKLKLTNIIMDHYNNTFYSRLPSLISDNWKFFCVCSKDNEKKLVFTVEASISSSNTKLASRDNTYQDYISN
notes: P12 protein of Plasmodium falciparum; P12 was presented as a prey (multimerised on streptavidin-HRP) for the positive control
In the case of B2, the binding result in assay [2] is recorded as “binds”.

B3: VASN (receptor, human, UniProt Q6EMK4 24-575, looked up)
chain: CPSGCQCSQPQTVFCTARQGTTVPRDVPPDTVGLYVFENGITMLDAGSFAGLPGLQLLDLSQNQIASLPSGVFQPLANLSNLDLTANRLHEITNETFRGLRRLERLYLGKNRIRHIQPGAFDTLDRLLELKLQDNELRALPPLRLPRLLLLDLSHNSLLALEPGILDTANVEALRLAGLGLQQLDEGLFSRLRNLHDLDVSDNQLERVPPVIRGLRGLTRLRLAGNTRIAQLRPEDLAGLAALQELDVSNLSLQALPGDLSGLFPRLRLLAAARNPFNCVCPLSWFGPWVRESHVTLASPEETRCHFPPKNAGRLLLELDYADFGCPATTTTATVPTTRPVVREPTALSSSLAPTWLSPTEPATEAPSPPSTAPPTVGPVPQPQDCPPSTCLNGGTCHLGTRHHLACLCPEGFTGLYCESQMGQGTRPSPTPVTPRPPRSLTLGIEPVSPTSLRVGLQRYLQGSSVQLRSLRLTYRNLSGPDKRLVTLRLPASLAEYTVTQLRPNATYSVCVMPLGPGRVPEGEEACGEAHTPPAVHSNHAPVTQAREGNLP
modifications: biotin on the biotin-acceptor site (enzymatic, co-transfected BirA)
notes: VASN (vasorin), human, full ectodomain; also called vasorin
In the case of B3, in assay [3], the binding result is reported as “binds”.
